Assay results: FireProtDB (doi:10.1021/bi990285w)
Where “and” joins values, the source holds several entries; their conditions need not be identical. Equal values may be shown once.

Details: Bacillus amyloliquefaciens; pH 8; 22 °C; GdnHCl; Fluorescence; phosphate 20 mM; whole UniProt chain shown

B1: Barstar wild type, P11540 (protein)
chain: MKKAVINGEQIRSISDLHQTLKKELALPEYYGENLDALWDCLTGWVEYPLVLEWRQFEQSKQLTENGAESVLQVFREAKAEGCDITIILS
denaturant m value: 2.5 kcal/mol/M and 1.45 kcal/mol/M and 2.2 kcal/mol/M | unfolding free energy: 5.1 kcal/mol and 2.1 kcal/mol and 5.6 kcal/mol
